Assay results: US20100190682A1, “USE OF PROTEIN HYDROLYSATES TO STABILIZE METALLOPROTEASE DETERGENT FORMULATIONS” (priority 2007, published 2010)

Experiments:
NprE = target: T1, NprE (Bacillus amyloliquefaciens, UniProt P06832); experiment: Remaining AGLA activity of NprE stability assay samples in DW-CT HDL detergent formulation; assay type: biochemical; settings: no inhibitor; 2 mg/mL NprE incubated in HDL detergent formulation DW-CT, 32° C.
T1 construct: made in house; host or cells: Bacillus subtilis
Experimental: The HDL detergent formulation used in this example was: DW-CT. This formulation has a 37% water content and was designed to make up to 90% by volume with 10% room (by volume) to add ingredients such as stabilizers or enzymes.
Assays were carried out using a 10% DW-CT detergent formulation made by mixing 5 mL of DW-CT (prepared as in Table 1), 1 mL of 500 mM HEPES at pH 8.0, and 44 mL distilled water.
Stability assay samples were prepared using five different candidate protein hydrolysates, as well as a control with no inhibitor added.
In general, 20 μL of inhibitor stock solution was pre-mixed with 10 μL of 50 mg/mL NprE stock solution. Then, 220 μL of 10% DW-CT detergent formulation in 10 mM HEPES was added to each sample so that the final NprE concentration was 2 mg/mL. Samples were incubated at 32° C. in a microtiter plate in a Thermomixer (Eppendorf).
The final concentration of enzyme in each sample was 2 mg/mL NprE. The final inhibitor concentrations in their respective samples were: 5.6 mg/mL of Amisoy, Amicase, HyPep 4601, or Proteose Peptone, respectively; or 7.2 mM of the casein hydrolysis product mixture (based on 12.5-fold dilution). […]
Remaining NprE activity of each of stability assay samples (prepared as above) was measured at various time points using the general AGLA activity assay except that the assay solution used was 50 mM MES, 2.5 mM CaCl2, 0.005% Tween 80 at pH 6.5.

[1] = NprE stability at different storage concentrations (AGLA activity over time); assay type: physicochemical
Experimental: Samples were prepared containing the neutral metalloprotease, NprE, at a range of concentrations from 625 to 10000 ppm in 10 mM HEPES (N-(2-Hydroxyethyl)piperazine-N′-(2-ethanesulfonic acid)) buffer at pH 8.0. All samples, except the one control at 625 ppm NprE concentration, included 10% PPG and 0.5 mM CaCl2. All samples were incubated at a temperature of 32° C. over a period of 6 hours. NprE activity of the samples was measured using the AGLA activity assay at various time points.

[2] = in the presence of zinc ion concentrations lower than 15 mM; cited from earlier work

T1 sequence (P06832 222-521): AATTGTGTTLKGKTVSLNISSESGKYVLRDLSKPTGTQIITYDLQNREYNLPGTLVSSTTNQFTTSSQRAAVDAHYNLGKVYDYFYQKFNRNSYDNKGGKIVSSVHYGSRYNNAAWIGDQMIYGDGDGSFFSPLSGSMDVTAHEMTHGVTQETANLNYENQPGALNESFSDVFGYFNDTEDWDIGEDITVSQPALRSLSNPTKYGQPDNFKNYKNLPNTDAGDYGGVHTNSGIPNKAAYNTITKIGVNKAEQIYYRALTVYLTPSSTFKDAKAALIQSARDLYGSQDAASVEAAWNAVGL

Substance: NprE: recombinant neutral metalloprotease: Bacillus amyloliquefaciens neutral metalloprotease cloned into Bacillus subtilis
- loss of original NprE activity in about an hour (NprE): more than 80%
- NprE activity maintained for 1.5 hours ([1]; 10,000 μg/mL (or ppm) NprE, 10% PPG, 0.5 mM CaCl2, 10 mM HEPES pH 8.0, 32° C.): almost full activity
- NprE activity at 1.5 hr ([1]; 625, 1250 and 2500 ppm NprE, 10% PPG, 0.5 mM CaCl2, 10 mM HEPES pH 8.0, 32° C.): ~60%
- NprE activity over time, control sample ([1]; 625 ppm NprE, no added PPG or CaCl2, 10 mM HEPES pH 8.0, 32° C.): lost nearly all of its activity within the first 2 hours
- stability period under detergent formulation conditions [2]: approximately 4 weeks
